According to article PMC4550699:

Target: RFP_PCNA1 (Arabidopsis thaliana) (UniProt Q9M7Q7)
Experiment: FRET or BRET; FLIM-FRET in nuclei of transiently transformed N. benthamiana leaf cells; donor GFP fusion, acceptor RFP fusion; E = (1 - tauDA/tauD) x 100%; FRET efficiency of free GFP/RFP (1.19%) used as threshold

Chain of UniProt Q9M7Q7 (Q9M7Q7 whole entry, the tested form may be a part): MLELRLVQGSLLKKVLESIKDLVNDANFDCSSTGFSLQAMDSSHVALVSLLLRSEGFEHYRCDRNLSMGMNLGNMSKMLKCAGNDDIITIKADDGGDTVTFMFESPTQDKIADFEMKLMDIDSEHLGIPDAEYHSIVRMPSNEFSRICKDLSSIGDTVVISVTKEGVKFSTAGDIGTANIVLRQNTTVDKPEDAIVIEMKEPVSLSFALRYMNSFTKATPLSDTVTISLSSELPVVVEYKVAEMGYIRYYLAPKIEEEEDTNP

Row | FRET efficiency | Substance
1 | 4.1% | CycD6;1_GFP (from UniProt Q9ZR04 1-302) (natural protein)
2 | 3.56% | CycD4;2_GFP (from UniProt Q0WQN9 1-298) (natural protein)
3 | 6.25% | CycD7;1_GFP (from UniProt Q9LZM0 1-341) (natural protein)
4 | 3.95% | CycD4;1_GFP (from UniProt Q8LGA1 1-308) (natural protein)

Target: RFP_PCNA2 (Arabidopsis thaliana) (UniProt Q9ZW35)
Experiment: as above

Chain of UniProt Q9ZW35 (Q9ZW35 whole entry): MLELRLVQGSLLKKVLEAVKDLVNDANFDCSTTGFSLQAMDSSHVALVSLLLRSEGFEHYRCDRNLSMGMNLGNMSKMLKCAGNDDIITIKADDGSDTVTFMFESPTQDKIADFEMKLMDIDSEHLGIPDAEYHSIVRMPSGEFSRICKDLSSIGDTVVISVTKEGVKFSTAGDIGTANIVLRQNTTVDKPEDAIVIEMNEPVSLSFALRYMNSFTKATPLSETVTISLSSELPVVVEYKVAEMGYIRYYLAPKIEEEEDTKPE

Row | FRET efficiency | Substance
5 | 2.87% | CycD6;1_GFP (from UniProt Q9ZR04 1-302) (natural protein)
6 | 5.14% | CycD4;2_GFP (from UniProt Q0WQN9 1-298) (natural protein)
7 | 3.75% | CycD7;1_GFP (from UniProt Q9LZM0 1-341) (natural protein)
8 | 1.98% | CycD4;1_GFP (from UniProt Q8LGA1 1-308) (natural protein)
